Test results: patent US7098001B2, “Polypeptides having dipeptidyl aminopeptidase activity and nucleic acids encoding same” (Novozymes, Inc., priority 1997, dated 2006)

Columns and labels:
[1] = activity of the purified enzymes on Leu-pNA; format: biochemical; details: 100-fold dilution
Method: The enzyme solution was then loaded onto a XK-26 column containing Q-Sepharose Big Beads pre-equilibrated with 20 mM phosphate buffer pH 7.5 buffer. A gradient was run from 0 to 300 mM NaCl, and then washed with 350 ml of 300 mM NaCl. Fractions were assayed for Leu-pNA activity according to the following protocol. The substrate was prepared by dissolving 2 mg of Leu-pNA (Sigma Chemical Co., St. Louis, Mo.) in 20 μl of DMSO. Then, 980 μl of 50 mM sodium phosphate pH 7.5 buffer was added. In a 96 well microtiter plate, 100 μl of the substrate solution was added to 100 μl of Aspergillus oryzae aminopeptidase I (100 fold diluted in 50 mM sodium phosphate pH 7.5 buffer) and the increase in absorbance at 405 nm was measured for 4 minutes using a SpectroMax 340 plate reader.
The purified aminopeptidase I was determined to have an activity of 26.822 LAPUs/ml for Leu-pNA using an extinction coefficient of 10,000 for para-nitroaniline at 405 nm. LAPU is defined as the leucine aminopeptidase activity which is determined as described in AF 298/1-GB (available on request from Novo Nordisk A/S, Denmark). The purified dipeptidyl aminopeptidase I was determined to have an activity of 11.54 DPAPU/ml for Ala-Pro-pNA, also using an extinction coefficient of 10000 for paranitroaniline. […]

[2] = test system: gelatin, soy bean meal tablets, wheat gluten, and sodium-caseinate; experiment: degree of hydrolysis (DH) assays, OPA method; format: biochemical; details: 0.125 mg added to FLAVOURZYME 3 mg and ALCALASE 3 mg; 50 C, 18 hours; all proteins tested
Method: The degree of hydrolysis (DH) assays were performed at 50 ? C for 18 hours as a mini-hydrolysis on a 10 ml scale using gelatin, soy bean meal tablets, wheat gluten, and sodium-caseinate at a 2% concentration adjusted to pH 7, if necessary, with no pH adjustment during hydrolysis. The hydrolyses were inactivated at 85 ? C for 3 minutes in a waterbath. The enzymes used were FLAVOURZYME™ with ALCALASE™ 2.4L (Novo Nordisk A/S, Bagsvrd, Denmark) and dipeptidyl aminopeptidase I with FLAVOURZYME™ and ALCALASE™ 2.4L. FLAVOURZYME™, ALCALASE™, and dipeptidyl aminopeptidase I were dosed at 3 mg, 3 mg, 0.125 mg, respectively, per 200 mg of protein per ml.
The DH, as defined by Adler-Nissen (1986, Enzymic Hydrolysis of Food Proteins, Elsevier Applied Science Publishers), was determined by reaction of the supernatant with OPA (ortho-phtaldialdehyde, Sigma Chemical Co., St. Louis, Mo.). […]
A volume of 25 μl of suitably diluted supernatant was mixed with 200 μl of OPA reagent in a microtiter plate well and allowed to react for exactly 2 minutes at 25 ? C The absorbance at 340 nm was measured in a microtiter plate reader and compared to the absorbance of a […] L-serine standard solution after subtraction of the blank value (water reacted with OPA-reagent). […] The degree of hydrolysis was calculated on basis of the total amount of protein in the hydrolysis mixture (not on basis of soluble protein).

B1: dipeptidyl aminopeptidase I: Recombinant Aspergillus oryzae 1568 (ATCC 20386) dipeptidyl aminopeptidase I, 771 amino acids (SEQ ID NO:2), produced in Fusarium and purified (protein, listed as Aspergillus oryzae)
chain: MKYSKLLLLLVSVVQALDVPRKPHAPTGEGSKRLTFNETVVKQAITPTSRSVQWLSGAEDGSYVYAAEDGSLTIENIVTNESRTLIPADKIPTGKEAFNYWIHPDLSSVLWASNHTKQYRHSFFADYYVQDVESLKSVPLMPDQEGDIQYAQWSPVGNTIAFVRENDLYVWDNGTVTRITDDGGPDMFHGVPDWIYEEEILGDRYALWFSPDGEYLAYLSFNETGVPTYTVQYYMDNQEIAPAYPWELKIRYPKVSQTNPTVTLSLLNIASKEVKQAPIDAFESTDLIIGEVAWLTDTHTTVAAKAFNRVQDQQKVVAVDTASNKATVISDRDGTDGWLDNLLSMKYIGPIKPSDKDAYYIDISDHSGWAHLYLFPVSGGEPIPLTKGDWEVTSILSIDQERQLVYYLSTQHHSTERHLYSVSYSTFAVTPLVDDTVAAYWSASFSANSGYYILTYGGPDVPYQELYTTNSTKPLRTITDNAKVLEQIKDYALPNITYFELPLPSGETLNVMQRLPPGFSPDKKYPILFTPYGGPGAQEVTKRWQALNFKAYVASDSELEYVTWTVDNRGTGFKGRKFRSAVTRQLGLLEAEDQIYAAQQAANIPWIDADHIGIWGWSFGGYLTSKVLEKDSGAFTLGVITAPVSDWRFYDSMYTERYMKTLSTNEEGYETSAVRKTDGFKNVEGGFLIQHGTGDDNVHFQNSAALVDLLMGDGVSPEKLHSQWFTDSDHGISYHGGGVFLYKQLARKLYQEKNRQTQVLMHQWTKKDLEE
[1]
  velocity on Leu-pNA: < 2 mOD/min
[2]
  increase of the degree of hydrolysis above FLAVOURZYME and ALCALASE alone: 5%
